Laboratory results reported in IntAct's records for PubMed 25327252.

B1: E3 ubiquitin-protein ligase RNF146 (Homo sapiens), Q9NTX7 (parent)
chain: MMAGCGEIDHSINMLPTNRKANESCSNTAPSLTVPECAICLQTCVHPVSLPCKHVFCYLCVKGASWLGKRCALCRQEIPEDFLDKPTLLSPEELKAASRGNGEYAWYYEGRNGWWQYDERTSRELEDAFSKGKKNTEMLIAGFLYVADLENMVQYRRNEHGRRRKIKRDIIDIPKKGVAGLRLDCDANTVNLARESSADGADSVSAQSGASVQPLVSSVRPLTSVDGQLTSPATPSPDASTSLEDSFAHLQLSGDNTAERSHRGEGEEDHESPSSGRVPAPDTSIEETESDASSDSEDVSAVVAQHSLTQQRLLVSNANQTVPDRSDRSGTDRSVAGGGTVSVSVRSRRPDGQCTVTEV

Variants of: B1
Details: with tnks1_human TNKS

effect of a mutation on the interaction | Variant
decreasing interaction strength | G200V;G338V;G339V
decreasing interaction strength | G200V

Variants of: B1
Details: with tnks1_human TNKS
Remark: another data set of the same source

effect of a mutation on the interaction | Variant
decreasing interaction strength | G338V;G339V
